Biological target: IGF-1 receptor (IGF1R) on DU145 cells and on immortalized human meibomian gland epithelial cells (human) (UniProt P08069)
Test: cell-based or functional assay

IGF-1 receptor (IGF1R) on DU145 cells and on immortalized human meibomian gland epithelial cells (human), sequence (P08069 31-1367): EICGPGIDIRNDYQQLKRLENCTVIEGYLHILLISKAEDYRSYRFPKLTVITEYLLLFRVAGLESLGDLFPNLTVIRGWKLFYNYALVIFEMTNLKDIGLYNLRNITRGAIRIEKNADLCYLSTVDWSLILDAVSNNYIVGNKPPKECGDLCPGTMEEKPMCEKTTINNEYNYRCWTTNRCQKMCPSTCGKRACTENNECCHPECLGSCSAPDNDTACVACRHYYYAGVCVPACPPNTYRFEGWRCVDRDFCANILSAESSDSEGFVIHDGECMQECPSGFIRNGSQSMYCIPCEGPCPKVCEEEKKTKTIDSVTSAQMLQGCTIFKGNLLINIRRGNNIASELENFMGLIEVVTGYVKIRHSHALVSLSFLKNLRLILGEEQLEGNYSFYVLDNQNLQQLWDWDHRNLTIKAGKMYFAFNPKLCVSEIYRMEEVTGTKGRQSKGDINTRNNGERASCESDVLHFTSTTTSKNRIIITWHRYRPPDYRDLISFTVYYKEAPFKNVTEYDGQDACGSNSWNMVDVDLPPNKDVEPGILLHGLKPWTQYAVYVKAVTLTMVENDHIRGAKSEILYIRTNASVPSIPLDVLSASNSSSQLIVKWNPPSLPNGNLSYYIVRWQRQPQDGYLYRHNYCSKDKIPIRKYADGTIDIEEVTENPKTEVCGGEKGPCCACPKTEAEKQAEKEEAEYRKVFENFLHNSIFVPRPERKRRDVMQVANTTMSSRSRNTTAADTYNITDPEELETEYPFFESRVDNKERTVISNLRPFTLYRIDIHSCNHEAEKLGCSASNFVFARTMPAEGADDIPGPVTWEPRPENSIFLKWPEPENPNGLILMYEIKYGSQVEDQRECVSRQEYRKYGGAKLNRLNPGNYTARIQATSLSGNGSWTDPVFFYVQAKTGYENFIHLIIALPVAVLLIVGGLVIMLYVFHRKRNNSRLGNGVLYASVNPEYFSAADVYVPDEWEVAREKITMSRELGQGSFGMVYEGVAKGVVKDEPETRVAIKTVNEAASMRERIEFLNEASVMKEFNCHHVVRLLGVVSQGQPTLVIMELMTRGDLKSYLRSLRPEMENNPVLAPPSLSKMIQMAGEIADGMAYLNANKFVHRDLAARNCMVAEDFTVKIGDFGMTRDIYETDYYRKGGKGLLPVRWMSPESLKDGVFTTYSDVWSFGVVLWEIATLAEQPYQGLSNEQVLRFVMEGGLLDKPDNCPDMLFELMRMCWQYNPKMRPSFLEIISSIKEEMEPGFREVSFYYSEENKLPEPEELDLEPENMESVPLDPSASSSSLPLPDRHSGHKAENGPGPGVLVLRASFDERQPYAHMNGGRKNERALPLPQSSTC

## IGF-1 E3R (SEQ ID NO: 4) (from UniProt P05019 49-118) (ligand)
  EC50 of AKT S473 phosphorylation in DU145 cells: 4.5 nM

## IGF-1 Ea (SEQ ID NO: 7) (from UniProt P17647 26-130) (ligand)
  EC50 of AKT S473 phosphorylation in DU145 cells: 8.7 nM

## IGF-1 Des1-3 (SEQ ID NO: 8) (ligand)
  EC50 of AKT S473 phosphorylation in DU145 cells: 2.3 nM

— US20250376500A1
